In publication PMC3325613 one finds Kd data, which are given here for two substances.

The target in assay [1] is HIV-1 capsid protein C-terminal domain, CTD (150–231) (HIV-1) (UniProt P12493). Kind of assay: ITC. (In general: In ITC the heat of successive injections is recorded.)
For assay [2], the target named is HIV-1 capsid protein C-terminal domain, CTD (144–231) (HIV-1) (UniProt P12493). Kind of assay: ITC.

Consider “HIV-1 capsid protein C-terminal domain, CTD (150–231) (from UniProt P12493 282-363) (domain or fragment)”, for which the dissociation constant Kd – broadly, a measure of binding affinity in units of concentration – in assay [1] amounted to 11 µM.

In assay [2], “HIV-1 capsid protein C-terminal domain, CTD (144–231) (from UniProt P12493 276-363) (domain or fragment)” had a dissociation constant (Kd) of 2.5 µM.
